Data on seven molecules can be found in patent US20110262445A1 (CEPHALON AUSTRALIA, published 2011).

Substitutions are numbered along the chain they refer to. In names and notes the source's numbering stands. Where only a bound is given, the exact number is not on record here.

The labels stand for the following.
B1: scFv CP-A6 (scFv)
scFv: QVQLVQSGAEVKKPGASVKVSCKASGYTFTDYYLHWVRQAPGQGLEWMGWIDPENGDTEHAPKFQGRVTMTTDTSTSTAYMELRSLRSDDTAVYYCNANKELRYFDVWGQGTMVTVSSGGGGSGGGGSGGGGSEIVMTQSPATLSVSPGERATLSCRASQSISINLHWYQQKPGQAPRLLIYFASQSISGIPARFSGSGSGTEFTLTISSLQSEDFAVYYCQQSNSFPLTFGGGTKVEIKR
notes: scFv-80 variant: VH Y59H; not shown: proprietary C-terminal FLAG tag
B2: scFv CU-A6 (scFv)
scFv: B1 scFv with F29L, H60Y, T112A, S196F
notes: scFv-80 variant: VH F29L, T107A; VL S63F; not shown: proprietary C-terminal FLAG tag
B3: Antibody 176 (antibody, human IgG1, kappa)
heavy: not shown
light: DIQMTQSPSSVSASVGDRVTITCRASQSISINLHWYQQKPGKAPKLLIYFASQSISGVPSRFSGSGSGTDFSLTINSLQTEDFATYYCQQSNSFPLTFGGGTKVEIKRTVAAPSVFIFPPSDEQLKSGTASVVCLLNNFYPREAKVQWKVDNALQSGNSQESVTEQDSKDSTYSLSSTLTLSKADYEKHKVYACEVTHQGLSSPVTKSFNRGEC
B4: Antibody 178 (antibody, human IgG1, kappa, V domains shown)
VH: EVQLVQSGAEVKKPGATVKISCKASGYALSDYYLHWVRQAPEKGLEWMGWIDPENGDTEYAPKFQGRVTITADTSTDTGYLELSSLRSEDTAVYYCAANKELRYFDVWGQGTLVTVSS
VL: DIQMTQSPSSVSASVGDRVTITCRASQSISINLHWYQQKPGKAPKLLIYFASQSISGVPSRFSGSGSGTDFSLTINSLQTEDFATYYCQQSNSFPLTFGGGTKVEIKR
B5: human IL-12p40 (ligand)
chain: IWELKKDVYVVELDWYPDAPGEMVVLTCDTPEEDGITWTLDQSSEVLGSGKTLTIQVKEFGDAGQYTCHKGGEVLSHSLLLLHKKEDGIWSTDILKDQKEPKNKTFLRCEAKNYSGRFTCWWLTTISTDLTFSVKSSRGSSDPQGVTCGAATLSAERVRGDNKEYEYSVECQEDSACPAAEESLPIEVMVDAVHKLKYENYTSSFFIRDIIKPDPPKNLQLKPLKNSRQVEVSWEYPDTWSTPHSYFSLTFCVQVQGKSKREKKDRVFTDKTSATVICRKNASISVRAQDRYYSSSWSEWASVPCS
notes: p40 monomer; also called p40 subunit
B6: human IL-12 (ligand)
chain 1: B5 chain
chain 2: RNLPVATPDPGMFPCLHHSQNLLRAVSNMLQKARQTLEFYPCTSEEIDHEDITKDKTSTVEACLPLELTKNESCLNSRETSFITNGSCLASRKTSFMMALCLSSIYEDLKMYQVEFKTMNAKLLMDPKRQIFLDQNMLAVIDELMQALNFNSETVPQKSSLEEPDFYKTKIKLCILLHAFRIRAVTIDRVMSYLNAS
notes: Recombinant (Peprotech); FLAG-tagged IL-12 in the flow cytometry assays, biotinylated in the IL-12Rβ2 assay; also called hIL-12
B7: human IL-23 (ligand)
chain 1: B5 chain
chain 2: RAVPGGSSPAWTQCQQLSQKLCTLAWSAHPLVGHMDLREEGDEETTNDVPHIQCGDGCDPQGLRDNSQFCLQRIHQGLIFYEKLLGSDIFTGEPSLLPDSPVGQLHASLLGLSQLLQPEGHHWETQQIPSLSPSQPWQRLLLRFKILRSLQAFVAVAARVFAHGAATLSP
notes: Recombinant (Ebioscience); HIS-tagged in flow cytometry, biotinylated in some assays; also called hIL-23; rhIL-23

Assay [1] concerns the target B7. Kind of assay: SPR screen, crude scFv captured via FLAG. The procedure:
Approximately 6500 individual scFvs recovered from the ribosome display reactions were expressed and screened for binding against IL-23 using a high-throughout SPR assay. The variants were ranked according to the kd and the best variants were sequenced at the nucleic acid level.
High-throughput SPR screening was conducted using a BIAcore A100 biosensor (GE Healthcare). Approximately 10 000 RU of the proprietary FLAG-specific capture molecule was immobilized on a CM5 Series S Sensor chip, using standard amine coupling chemistry on Spots 1 & 5 (outer spots) and 3,000RU to Spots 2 & 4 (inner spots) in each of the four flow cells of the BIAcore A100 Biosensor. The running buffer used was HBS-EP+ (BIAcore) and all interactions measured at 25° C. Crude periplasmic preparations of FLAG-tagged scFvs (prepared as described in the previous paragraph), were diluted two-fold in running buffer before capturing at a flow rate of 5u1/min for 60 sec. Approx. 100RU (on outer spots) and 50RU (on inner spots) of tagged scFv was captured. Following a 2 min stabilization period, IL-23 was passed over all spots of all four flow cells simultaneously at a flow rate of 30u1/min for 120 sec and dissociation monitored for 200 sec. Generated sensorgrams were referenced against the unmodified spot 3 of each flow cell, and fitted using a 1:1 Langmuir equation with R1 set to local to account for varying ligand densities to generate the kₐ, kd and KD values.

For assay [2], the target named is B7. Put plainly: SPR, purified scFv captured via FLAG; LOD estimated 1 × 10^-5 s^-1. The procedure: (§1) A number of the scFv variants presented in TABLE 4 were selected for full characterization of binding kinetics, encompassing a broad range of mutation profiles and binding affinities. Large-scale protein expressions were carried out for each scFv. The expressed scFvs were purified as monomeric proteins and tested for binding against IL-12 and IL-23 by SPR (TABLE 5).
(§2) Purified scFvs were subjected to full kinetic characterization using a BIAcore T100 biosensor (GE Healthcare). Approximately 10,000 RU of the proprietry FLAG-specific capture molecule was immobilized on a CM5 Series S Sensor chip, using standard amine coupling chemistry in flow cells (FC) 1 and FC2 (or alternatively FC3 and FC4) of the BIAcore T100 Biosensor. The running buffer used was HBS-EP+ (BIAcore) and interactions measured at 30° C. or 35° C. to promote differentiation of scFvs with very similiar kd values. Peak purified FLAG-tagged scFvs (prepared as described in the previous paragraph) were diluted to 10 nM in running buffer, and captured on FC2 at a flow rate of 10 μl/min in order to capture 50 RU of scFv (typically 60 sec was sufficient to capture this level of tagged scFv). After an appropriate stabilization period, the target, IL-12 or IL-23, were passed over FC1 and FC2 at a flow rate of 60 μl/min at concentrations ranging from 81 nM to 0.13 nM (using a five-fold dilution of IL-12) and 81 nM to 1 nM (using a three-fold dilution of IL-23). The contact time for association was 180 sec and dissociation measured for 10 mins for the highest concentration and 300 sec for all other concentrations in the series. The sensorgram data from FC2 was subtracted from FC1 and a buffer only control. The curves were fitted using a 1:1 Langmuir equation to generate the kₐ, kd and KD values.

The target in assay [3] is B7. Kind of assay: SPR, purified scFv captured via FLAG. The procedure: as §1, §2
For orientation: In SPR one partner is held on a chip, and binding of the other changes the refractive index at the surface.

The target of assay [4] is B6. Put plainly: SPR, purified scFv captured via FLAG. Here is the method:
as §1, §2

Assay [5] addresses B7. Put plainly: ELISA. Summed up: (§3)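 Maxisorp plates were coated overnight at 4° C with cytokine at 1 μg/mL in carbonate buffer pH 9.6, then blocked for 1 hour at 25° C with 1% BSA in PBS. Antibody titrations were allowed to bind for 1 hour at 25° C and detected with goat anti-human IgG or anti-murine immunoglobulin HRP (1:2000, 1 hour), followed by TMB development stopped with 1M HCl. Binding is reported as absorbance. Readings were taken at 450 nm against a 620 nm reference.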

In assay [6] the target is B6. Kind of assay: ELISA. Summed up:
as §3

The target in assay [7] is T1, IL-12Rβ1 on stably transfected Jurkat cells (human, UniProt P42701 24-662).
T1 construct: whole, on cells; Cell line negative for IL-12Rβ2 and IL-23R; also called IL-12Rβ1 Jurkat cell line
Put plainly: flow cytometry; binding blocked by Antibody 202.1. Put shortly:
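Jurkat cells stably transfected with IL-12Rβ1 were used. FLAG- or HIS-tagged cytokine at 250 ng/ml was preincubated with antibody (10 to 0.01 μg/ml, half-log dilutions) for one hour at 37° C, then cells at 10⁶/ml were added for a further hour. Cells were washed in PBS/10% FBS. Cell-bound cytokine was detected with phycoerythrin anti-HIS or FITC anti-FLAG on a Beckman-Coulter Quanta, and blocking of receptor binding was the read-out.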
On the technique in general: Flow cytometry measures light scatter and fluorescence of single cells or particles in a stream.

For orientation: koff means a measure of how fast the partners let go of each other. Usually kon stands for the second-order rate constant of association. A lower kon goes with slow association. One may read the Kd as the concentration at which binding is half-saturated. A higher Kd goes with a looser complex. Regarding B1, the koff in the assay with human IL-23 [1] is 0.00019 s⁻¹; in the assay with human IL-23 [2] it was under 1e-05 s⁻¹; with human IL-12 [4] it was 0.00012 s⁻¹. For the same molecule, the kon was found to be 310000 M⁻¹ s⁻¹ with human IL-23 [3] and 2e+06 M⁻¹ s⁻¹ with human IL-12 [4]. The Kd with human IL-12 [4] is 0.061 nM.
Turning to B2, the koff was 0.00019 s⁻¹ with human IL-23 [1], under 1e-05 s⁻¹ with human IL-23 [2] and 9.7e-05 s⁻¹ in the assay with human IL-12 [4]. For the same molecule, the kon in the assay with human IL-23 [3] turned out to be 300000 M⁻¹ s⁻¹; in the assay with human IL-12 [4], 2e+06 M⁻¹ s⁻¹. Moreover, the Kd in the assay with human IL-12 [4] was determined as 0.048 nM.
With B3, the binding result in the assay with human IL-23 [5] and with human IL-12 [6] was “binds” in each case.
On to B4, for which the binding result with human IL-23 [5] and with human IL-12 [6] was “binds” in each case.
On to B5, for which the binding result in assay [7] is reported as “binds”.
For B6, in assay [7], the binding result is on record as “binds”.
Turning to B7, the binding result in assay [7] is “binds”.
